Substitutions are numbered along the chain they refer to.

The target of assay [1] is T1, recombinant human EpCAM extracellular domain (human, UniProt P16422 24-265).
T1 construct: extracellular domain; Plate-coated antigen of the ELISAs; also called human EpCAM ECD; recombinant EpCAM antigen
T1 sequence (looked up): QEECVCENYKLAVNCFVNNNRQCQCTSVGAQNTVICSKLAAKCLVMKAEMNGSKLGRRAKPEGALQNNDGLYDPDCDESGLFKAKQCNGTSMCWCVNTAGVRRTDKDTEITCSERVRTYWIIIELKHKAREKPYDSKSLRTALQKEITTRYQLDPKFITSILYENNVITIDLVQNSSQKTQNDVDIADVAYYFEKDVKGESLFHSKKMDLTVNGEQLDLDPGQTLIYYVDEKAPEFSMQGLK
Put plainly: ELISA on human EpCAM, pH range 5.0 to 7.4.

For assay [2], the target named is T2, human EpCAM expressed on cells (CHO, Colo205, 293) (human, UniProt P16422 24-314).
T2 sequence (looked up): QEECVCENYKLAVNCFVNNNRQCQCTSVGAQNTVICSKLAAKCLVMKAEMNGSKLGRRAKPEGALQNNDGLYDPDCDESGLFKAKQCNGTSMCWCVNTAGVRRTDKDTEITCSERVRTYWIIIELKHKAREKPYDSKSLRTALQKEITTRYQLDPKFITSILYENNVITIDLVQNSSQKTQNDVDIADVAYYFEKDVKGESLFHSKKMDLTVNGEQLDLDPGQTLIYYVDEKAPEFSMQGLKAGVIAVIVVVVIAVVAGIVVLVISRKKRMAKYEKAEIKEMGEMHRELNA
Put plainly: cell-based or functional assay.

Assay [3] concerns the target T1, recombinant human EpCAM extracellular …. Put plainly: ELISA, human EpCAM, pH 6.0. The protocol:
(§1) The binding activities of the humanized conditionally active anti-EpCAM antibodies to human EpCAM were measured by ELISA, using the template antibody BAP-1-5-01-06, as a control. The EC50 values of the humanized conditionally active anti-EpCAM antibodies for binding to human EpCAM at pH 6.0 and pH 7.4 are summarized in Table 5.
(§2) The ELISA assay was performed using the following protocol: [0388] 1) Coat ELISA plates with 100 μL of 0.5 μg/mL (06_20_17 and 06_28_17 Experiments) or 1 μg/mL (07_06_17 and 07_11_17 Experiments) recombinant EpCAM antigen in carbonate-bicarbonate coating buffer [0389] 2) Cover plates with sealing film and incubate overnight at 4° C. [0390] 3) Decant plates and tap out residual liquid on a stack of paper towels [0391] […] 5) Add 200 μL of various pH incubation buffers to the wells according to the sample map.
In general terms: An ELISA detects its analyte on a solid surface through an enzyme-linked reagent.

For assay [4], the target named is T3, cyno EpCAM (recombinant, ELISA antigen) (cynomolgus monkey).
T3 construct: extracellular domain; also called cynomolgus EpCAM extracellular domain
T3 sequence (Q1WER1 24-265): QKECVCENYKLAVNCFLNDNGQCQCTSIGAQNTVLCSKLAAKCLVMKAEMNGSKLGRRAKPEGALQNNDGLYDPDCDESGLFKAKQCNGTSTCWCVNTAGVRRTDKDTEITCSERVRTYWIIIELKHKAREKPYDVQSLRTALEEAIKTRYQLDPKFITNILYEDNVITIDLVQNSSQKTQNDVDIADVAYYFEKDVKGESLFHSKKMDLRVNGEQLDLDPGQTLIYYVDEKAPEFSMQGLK
As to the kind of experiment: ELISA, cyno EpCAM, pH 6.0. The procedure:
(§3) The binding activities of the humanized conditionally active anti-EpCAM antibodies to cyno EpCAM were similarly measured. The EC50 for binding to the cyno EpCAM at pH 6.0 and pH 7.4 for the humanized conditionally active anti-EpCAM antibodies are summarized in Table 7.
as §2

Assay [5] has as its target T3, cyno EpCAM (recombinant, ELISA antigen). Put plainly: ELISA with pH titration, cyno EpCAM. The protocol: The binding activities of the humanized conditionally active anti-EpCAM antibodies to cyno EpCAM with pH titration was similarly measured by ELISA.
as §2

The target of assay [6] is T2, human EpCAM expressed on cells (CHO, …). Put plainly: FACS on 293 cells expressing human EpCAM, pH 6.0. The protocol: (§4) A similar FACS analysis was also carried out using 293 cells expressing human EpCAM. […] The EC50 values for binding to the 293 cells expressing human EpCAM by the humanized conditionally active anti-EpCAM antibodies are summarized in Table 10.
The target of assay [7] is T3, cyno EpCAM (recombinant, ELISA antigen). As to the kind of experiment: ELISA, cyno EpCAM, pH 7.4. The procedure: as §3, §2
Assay [8] has as its target T2, human EpCAM expressed on cells (CHO, …). As to the kind of experiment: FACS on 293 cells expressing human EpCAM, pH 7.4. The procedure:
as §4

Assay [9] deals with T4, cyno EpCAM expressed on 293 cells (cynomolgus monkey).
T4 construct: whole, on cells; also called 293 cells expressing cyno EpCAM
T4 sequence (Q1WER1 24-314): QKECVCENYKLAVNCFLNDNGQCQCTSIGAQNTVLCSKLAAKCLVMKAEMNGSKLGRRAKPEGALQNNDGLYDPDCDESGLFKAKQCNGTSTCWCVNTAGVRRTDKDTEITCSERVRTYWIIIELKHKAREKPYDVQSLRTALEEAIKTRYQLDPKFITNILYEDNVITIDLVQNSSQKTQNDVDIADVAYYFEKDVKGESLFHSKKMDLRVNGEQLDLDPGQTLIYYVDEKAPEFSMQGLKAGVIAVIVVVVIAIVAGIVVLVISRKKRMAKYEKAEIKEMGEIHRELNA
Put plainly: FACS on 293 cells expressing cyno EpCAM, pH 6.0. The procedure:
(§5) A similar FACS analysis was also carried out using 293 cells expressing cyno EpCAM. […] The EC50 values for binding to the 293 cells expressing cyno EpCAM by the humanized conditionally active anti-EpCAM antibodies are summarized in Table 11.

Assay [10] deals with T2, human EpCAM expressed on cells (CHO, …). As to the kind of experiment: FACS on Colo205 cells expressing human EpCAM, pH 6.0. The protocol: (§6) Binding activities of the humanized conditionally active anti-EpCAM antibodies to Colo205 cells expressing human EpCAM were measured by FACS at pH 6.0 and pH 7.4. […] The EC50 values for binding to the Colo205 cells expressing human EpCAM by the humanized conditionally active anti-EpCAM antibodies are summarized in Table 9.

Assay [11] shares this target. As to the kind of experiment: FACS on Colo205 cells expressing human EpCAM, pH 7.4. The procedure:
as §6

The target of assay [12] is T1, recombinant human EpCAM extracellular …. As to the kind of experiment: ELISA with pH titration, human EpCAM. The procedure:
The binding activities of the humanized conditionally active anti-EpCAM antibodies to human EpCAM with pH titration were also measured by ELISA.
as §2

For assay [13], the target named is T4, cyno EpCAM expressed on 293 cells. As to the kind of experiment: FACS on 293 cells expressing cyno EpCAM, pH 7.4. The protocol:
as §5

The target of assay [14] is T1, recombinant human EpCAM extracellular …. As to the kind of experiment: ELISA, human EpCAM, pH 7.4. The procedure: as §1, §2

B1: BAP-105-01-02 (antibody, V domains shown)
VH: QVQLQQSGAELAKPGASVKVSCKASGYTFTSYWMHWVKQRPGQGLEWIGDIRPSTGYTEYNQKFKDKATLTADKSSSTAYMQLSSLTFEDSAVYYCGRGDNWVGFANWGQGTLVTVSA
VL: QIVLTQSPAIMSASLGEEIALTCSASSSISYMHWYQQKSGTSPKLLIYSTSNLASGVPSRFSGSGSGTFYSLTISSVEAEDAADYFCHQWSTYHTFGSGTKLEIK
Turning to B1, in assay [1], the binding result is “binds”.

B2: BAP-105-01-05 (antibody, V domains shown)
VH: B1 VH with D50Y
VL: B1 VL with H88E
As for B2, the binding result in [1] is recorded as “binds”.

B3: BAP-105-01-04 (antibody, V domains shown)
VH: B1 VH with D50Y
VL: B1 VL with A54H
B3: the binding result in assay [1] is on record as “binds”.

B4: BAP-105-06-01 conjugated to MMAE (antibody, V domains shown)
VH: EVQLVQSGAEVKKPGATVKISCKVSGYTFTSYWMHWIRQPPGKGLEWIGYIRPSTGYTEYNQKFKDRFTISRDNSKNTLYLQMNSLRAEDTAVYYCGRGDNWVGFANWGQGTLVTVSS
VL: EIVLTQSPDFQSVTPKEKVTITCSASSSISYMHWYQQKPGKAPKLLIYSTSKLASGVPDRFSGSGSGTDFTLKISRVEAEDVGVYYCHQWSTYETFGQGTKVEIK
modifications: antibody conjugated to MMAE; chain and residues of attachment not stated
Turning to B4, in assay [2], the “IC50 for the in vitro killing of Colo205 cells, pH6.0” value worked out at 101 ng/mL; the “IC50 for the in vitro killing of Colo205 cells, pH7.4” value worked out at 550 ng/mL; the “ratio (pH7.4/pH6.0) of the IC50 for the in vitro killing of Colo205 cells” value is 5.47.

B5: BAP-105.4-02-01 (antibody, V domains shown)
VH: B4 VH with I37V, P40A, K43Q, I48M
VL: EIVMTQSPATLSVSPGERATLSCSASSSISYMHWYQQKPGKAPKLLIYSTSNLASGVPSRFSGSGSGTEFTLTISSLQPDDFATYYCHQWSTYETFGQGTKVEIK
notes: Humanized
Broadly, the EC50 is the concentration at which the effect is half-maximal. For B5, the EC50 in [3] turned out to be 0.0154 µg/mL; in assay [4] it was 0.674 µg/mL; in [6], 0.215 µg/mL; in [7] it was 0.0359 µg/mL; in assay [8] it was 0.238 µg/mL; in assay [9], 2.42 µg/mL. Moreover, the 50% effective concentration (EC50) in assay [10] came to 0.321 µg/mL; in [11], 0.652 µg/mL; in assay [13] it was 14.1 µg/mL; in assay [14], 114 µg/mL. Besides, the pH inflection point was 6.17 pH in [5] and 6.6 pH in assay [12].

B6: BAP-105-06-02 conjugated to MMAE (antibody, V domains shown)
VH: B4 VH
VL: B4 VL with K52S
modifications: antibody conjugated to MMAE; chain and residues of attachment not stated
Turning to B6, in assay [2], the “IC50 for the in vitro killing of Colo205 cells, pH6.0” value came out at 146 ng/mL; the “IC50 for the in vitro killing of Colo205 cells, pH7.4” value was 708 ng/mL; the “ratio (pH7.4/pH6.0) of the IC50 for the in vitro killing of Colo205 cells” value was 4.86.

B7: BAP-105.4-01-02 (antibody, V domains shown)
VH: EVQLVQSGAEVKKPGESLRISCKGSGYTFTSYWMHWIRQSPSRGLEWLGYIRPSTGYTEYNQKFKDRVTISADKSISTAYLQWSSLKASDTAMYYCGRGDNWVGFANWGQGTLVTVSS
VL: B4 VL with K52N
notes: Humanized
For B7, the half-maximal effective concentration (EC50) was found to be 0.0147 µg/mL in [3]; 0.194 µg/mL in [4]; 0.116 µg/mL in [6]; 0.208 µg/mL in [7]; 0.174 µg/mL in assay [8]; 1.26 µg/mL in assay [9]. Moreover, the half-maximal effective concentration (EC50) in [10] turned out to be 0.273 µg/mL; in [11], 0.397 µg/mL; in assay [13], 6.36 µg/mL; in [14] it was 0.066 µg/mL. Besides, the pH inflection point is 6.27 pH in assay [5] and 6.87 pH in assay [12].

B8: BAP-105.4-03-02 (antibody, V domains shown)
VH: B7 VH
VL: EIVMTQSPATLSVSPGERATLSCSASSSISYMHWYQQKPGKAPKLLIYSTSNLASGIPPRFSGSGYGTDFTLTINNIESEDAAYYFCHQWSTYETFGQGTKVEIK
notes: Humanized
For the molecule B8, the half-maximal effective concentration (EC50) in assay [3] is 0.0191 µg/mL; in assay [4], 0.084 µg/mL; in assay [6] it was 0.118 µg/mL; in assay [7] it was 0.105 µg/mL; in [8], 0.159 µg/mL; in assay [9] it was 1.42 µg/mL. In addition, the concentration for a half-maximal effect (EC50) in assay [10] came to 0.497 µg/mL; in assay [11] it was 0.67 µg/mL; in assay [13], 4.46 µg/mL; in [14] it was 0.0487 µg/mL. Also, the pH inflection point came to 6.35 pH in assay [5] and 6.82 pH in assay [12].

The values above are taken from patent US20260053904A1 (BIOATLA, published 2026).
